Measured values taken from patent US20100260769A1 (MORPHOTEK, published 2010).
Positions count from the first letter of the chain named. One block for each binder: values may come before it.

What was measured:
[1] = biological target: T1, mouse TEM1 extracellular domain (ECD)-Fc fusion protein (mouse, UniProt Q91V98 18-695); test: hybridoma screening ELISA on TEM1-Fc protein, Fc-reactive clones removed by counterscreen
T1 construct: also called mouse TEM1-Fc
T1 sequence: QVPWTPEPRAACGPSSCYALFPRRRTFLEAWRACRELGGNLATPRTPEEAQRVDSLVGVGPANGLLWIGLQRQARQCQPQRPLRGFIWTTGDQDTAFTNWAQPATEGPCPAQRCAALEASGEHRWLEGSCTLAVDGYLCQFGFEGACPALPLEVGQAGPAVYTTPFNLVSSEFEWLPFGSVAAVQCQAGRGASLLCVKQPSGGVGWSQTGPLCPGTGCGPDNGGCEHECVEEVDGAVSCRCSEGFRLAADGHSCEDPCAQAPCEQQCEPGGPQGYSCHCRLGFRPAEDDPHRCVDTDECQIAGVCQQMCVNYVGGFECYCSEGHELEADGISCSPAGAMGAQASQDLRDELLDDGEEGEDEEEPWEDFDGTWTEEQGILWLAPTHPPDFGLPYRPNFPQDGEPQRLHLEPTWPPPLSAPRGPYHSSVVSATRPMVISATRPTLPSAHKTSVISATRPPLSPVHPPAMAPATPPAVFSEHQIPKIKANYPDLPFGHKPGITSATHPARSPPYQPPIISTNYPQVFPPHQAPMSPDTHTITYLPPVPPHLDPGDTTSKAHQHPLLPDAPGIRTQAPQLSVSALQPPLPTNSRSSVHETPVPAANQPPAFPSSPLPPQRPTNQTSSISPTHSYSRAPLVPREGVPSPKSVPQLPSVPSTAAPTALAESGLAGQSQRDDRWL
Experimental: To generate rabbit anti-mouse endosialin (TEM1) antibody clone 8, we immunized two New Zealand white rabbits with four injections of mouse TEM1 extracellular domain (ECD)-Fc fusion protein. Antiserum titer was monitored using standard ELISA (TEM1) and counterscreen ELISA for Fc reactivity. A final IV boost was performed within 4-8 weeks of the last regular injection boost. Splenectomies were performed after the final IV boost. Lymphocytes were isolated from each rabbit spleen. Fusions with 240E-W3 cells (Epitomics) were performed in forty 96-well plates. Standard ELISA screening for 40 plates was performed using TEM1-Fc protein. All positive hybridomas were expanded to 24-well plates and confirmatory standard and differential ELISA were performed. Fc reactive clones were counterscreened and removed, leaving the TEM1-reactive clones. Positive hybridomas were expanded for Ig gene sequencing and generation of purified Ab. One positive hybridoma was assigned the designation clone 8.

[2] = biological target: soluble human endosialin extracellular domain-mouse Fc fusion protein (human; mouse); test: competition ELISA: hTEM1-Fc (15 µg/mL) preincubated with serial dilutions of antibody, binding to fibronectin-coated plate detected with anti-mouse HRP
[3] = biological target: T2, full length human TEM1 (endosialin) with a C-terminal V5-His tag, expressed in A431-TEM1 cells / tumor … (human, UniProt Q9HCU0 18-757); test: IHC on FFPE A431-TEM1 tumor xenograft sections, biotinylated antibody at 20 µg/ml
T2 construct: Target in tissue sections of A431-TEM1 tumor xenografts; also called hTEM1; endosialin/TEM1
T2 sequence: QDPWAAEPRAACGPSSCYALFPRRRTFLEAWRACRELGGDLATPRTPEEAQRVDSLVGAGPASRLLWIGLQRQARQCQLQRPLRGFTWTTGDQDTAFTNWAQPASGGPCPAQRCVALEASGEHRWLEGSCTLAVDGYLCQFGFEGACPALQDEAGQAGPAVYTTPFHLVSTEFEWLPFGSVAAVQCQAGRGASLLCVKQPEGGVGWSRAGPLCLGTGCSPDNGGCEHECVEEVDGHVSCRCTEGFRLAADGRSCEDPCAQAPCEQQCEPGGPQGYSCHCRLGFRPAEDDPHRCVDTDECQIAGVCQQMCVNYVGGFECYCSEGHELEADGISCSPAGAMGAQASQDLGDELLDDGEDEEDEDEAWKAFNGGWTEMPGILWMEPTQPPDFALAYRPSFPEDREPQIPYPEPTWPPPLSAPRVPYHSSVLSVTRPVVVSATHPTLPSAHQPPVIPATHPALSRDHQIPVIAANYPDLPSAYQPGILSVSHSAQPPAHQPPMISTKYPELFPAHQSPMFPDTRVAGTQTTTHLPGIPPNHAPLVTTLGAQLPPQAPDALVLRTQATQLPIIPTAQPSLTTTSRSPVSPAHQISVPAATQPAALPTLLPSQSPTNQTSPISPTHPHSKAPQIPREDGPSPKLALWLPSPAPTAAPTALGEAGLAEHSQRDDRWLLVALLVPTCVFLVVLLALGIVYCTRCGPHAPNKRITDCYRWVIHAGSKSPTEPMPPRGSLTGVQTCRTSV

B1: rabbit anti-mouse endosialin monoclonal antibody clone 8 (antibody, V domains shown)
VH: AQSVEESGGGLVKPEGSLTLSCKASGFSFSNNSYICWVRQAPGKGLEWIACIEFGRGNSHYASWAKGRFTITRSTSLNTVTLQLNSLTAADTATYFCARGSRGVGYGYGLWGPGTLVTISS
VL: ELDMTQTPSPVSAAVGGTVTINCQASQSVYSNSRLSWYQQKPGQPPKQLIYSASTLASGVPSRFKGSGSGTHFTLTLSGVQCDDAATYYCQGEFACSSADCSAFGGGTELEILK
notes: Rabbit IgG from a hybridoma, kappa light chain; rabbit constant regions are not; also called hybridoma clone 8 (ATCC PTA-9651)
binding result [1]: binds

B3: rabbit anti-human endosialin monoclonal antibody 1-55-2 (antibody, V domains shown)
VH: QQQLMESGGDLVKPEGSLTLTCTASGFSFSSSYWGCWVRQAPGKGPEWIACIYGGSSGTTYYPNWAKGRFSISKTSSTTVTLQMASLTAADTATYFCARVTNGGDWDFKLWGPGTLVTVSS
VL: ELVMTQTPASVEVAVGGTVTIKCQASQSINTYLAWYQQKPGQPPKLLIYRASTLASGVPSRFKGSGSGTEFTLTISDLECADAATYYCQQSVRVIDVDNTFGGGTEVVVK
notes: Rabbit IgG from a hybridoma, kappa light chain; rabbit constant regions are not; also called hybridoma 1-55-2 (ATCC PTA-9652)
binding result [3]: binds | IC50 [2]: 69.5 µg/mL

Other lines, results leading:

IC50 [2]: 21.4 µg/mL
B2: rabbit anti-human endosialin monoclonal antibody 1-3-1 (antibody, V domains shown)
VH: AQSVEESGGDLVRPGASLTLTCSASGFTINRNYWICWVRQAPGRGPEWIACIYGGSSGTTYYTNWAKGRFTISKAASTTVTLQMTSLTVADTATYFCARVDNGGDWYFRLWGPGTLVTISS
VL: ELDLTQTPASVEVAVGGTVTIKCQASQSISSYLAWYQQKPGQPPKLLIYRASTLASGVSSRFKGSGSGTEFTLTISGVQCDDAATYYCQQGVRVVDIDNSFGGGTELVVK

IC50 [2]: 41.5 µg/mL
B4: rabbit anti-human endosialin monoclonal antibody 1-25-2 (antibody, V domains shown)
VH: B3 VH with Q1A, Q3S, M5E, V119I
VL: B3 VL with M4L, S28T, T31N, A34T, S91T, I95V, T100S
